Laboratory results taken from article PMC5206748.

Assays:
[1] = target: TSP7 S77R (scFv) (mouse); experiment: SPR; scFv (100 nM) captured on anti-His6-tag antibody on a CM5 chip; analyte 1.25-20 nM strand-swap dimer or 6.25-100 nM monomer construct; global fitting
[2] = target: human P-cadherin expressed on CHO cells (human) (UniProt P22223)

TSP7 S77R (scFv) (mouse), sequence (heavy, as listed by the source): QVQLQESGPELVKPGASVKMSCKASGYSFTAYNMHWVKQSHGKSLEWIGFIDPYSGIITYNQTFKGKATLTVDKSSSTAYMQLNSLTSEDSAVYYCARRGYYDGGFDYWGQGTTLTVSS
human P-cadherin expressed on CHO cells, sequence (P22223 108-829): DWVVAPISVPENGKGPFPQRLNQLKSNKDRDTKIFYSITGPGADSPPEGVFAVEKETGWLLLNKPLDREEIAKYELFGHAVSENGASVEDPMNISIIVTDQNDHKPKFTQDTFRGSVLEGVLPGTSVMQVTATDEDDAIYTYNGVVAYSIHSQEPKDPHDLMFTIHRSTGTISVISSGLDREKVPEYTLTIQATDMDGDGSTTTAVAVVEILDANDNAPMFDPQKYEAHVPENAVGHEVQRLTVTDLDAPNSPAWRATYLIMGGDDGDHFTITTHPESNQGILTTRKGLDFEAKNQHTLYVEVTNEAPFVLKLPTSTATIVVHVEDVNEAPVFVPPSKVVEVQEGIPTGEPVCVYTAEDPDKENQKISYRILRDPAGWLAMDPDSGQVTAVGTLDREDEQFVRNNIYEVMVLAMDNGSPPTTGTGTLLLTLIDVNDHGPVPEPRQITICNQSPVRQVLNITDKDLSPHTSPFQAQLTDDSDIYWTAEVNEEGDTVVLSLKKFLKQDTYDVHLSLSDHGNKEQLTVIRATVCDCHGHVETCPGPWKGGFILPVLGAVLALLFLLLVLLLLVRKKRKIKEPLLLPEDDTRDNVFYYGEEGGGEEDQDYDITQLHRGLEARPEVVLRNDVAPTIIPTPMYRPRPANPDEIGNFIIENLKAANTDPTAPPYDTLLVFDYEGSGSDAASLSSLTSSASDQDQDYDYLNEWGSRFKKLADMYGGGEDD

Substance: human P-cadherin EC12 K14E (domain or fragment)
- fold change of affinity against TSP7 WT [1]: 2 fold lower

Substance: human P-cadherin expressed on CHO cells (from UniProt P22223 108-829) (natural protein)
- loss of dense fluorescent puncta of P-cadherin WT-mGFP at cell-cell boundaries of CHO cells after 100 nM TSP7 (0-120 min) [2]: 90%
